PMC6778226 (Proceedings of the National Academy of Sciences of the …, 2019)
Like-named read-outs stand apart in the source and are kept apart here.

What was measured:
[1] = biological target: T1, voltage-dependent anion channel 1 (human, UniProt P21796 1-283, amine reactive RED-NHS NT-647 dye (for MST)); assay: MST
[2] = biological target: T1, voltage-dependent anion channel 1; assay: MST; remark: listed apart in the source

T1 sequence (P21796 whole entry): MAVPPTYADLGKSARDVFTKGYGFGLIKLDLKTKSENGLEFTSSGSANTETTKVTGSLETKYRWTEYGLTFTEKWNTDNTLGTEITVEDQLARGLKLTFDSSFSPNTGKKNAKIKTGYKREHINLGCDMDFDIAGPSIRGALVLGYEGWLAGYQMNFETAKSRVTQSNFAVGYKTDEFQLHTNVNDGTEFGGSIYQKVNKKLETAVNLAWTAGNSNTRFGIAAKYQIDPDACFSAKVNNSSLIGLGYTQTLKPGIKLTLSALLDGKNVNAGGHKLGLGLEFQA

B1: mitoNEET (natural protein, human)
chain: RFYVKDHRNKAMINLHIQKDNPKIVHAFDMEDLGDKAVYCRCWRSKKFPFCDGAHTKHNEETGDNVGPLIIKKKET
Kd [1]: 76 ± 2 nM
Kd [2]: 210 ± 15 nM
